Where no end group is shown, it is not given here. 5‑Fam = 5-carboxyfluorescein; Ahx = NCCCCCC(=O)O
T1: Human FKBP52 (52-kDa FK506-binding protein) (human, UniProt Q02790 1-459)
T1 sequence (looked up): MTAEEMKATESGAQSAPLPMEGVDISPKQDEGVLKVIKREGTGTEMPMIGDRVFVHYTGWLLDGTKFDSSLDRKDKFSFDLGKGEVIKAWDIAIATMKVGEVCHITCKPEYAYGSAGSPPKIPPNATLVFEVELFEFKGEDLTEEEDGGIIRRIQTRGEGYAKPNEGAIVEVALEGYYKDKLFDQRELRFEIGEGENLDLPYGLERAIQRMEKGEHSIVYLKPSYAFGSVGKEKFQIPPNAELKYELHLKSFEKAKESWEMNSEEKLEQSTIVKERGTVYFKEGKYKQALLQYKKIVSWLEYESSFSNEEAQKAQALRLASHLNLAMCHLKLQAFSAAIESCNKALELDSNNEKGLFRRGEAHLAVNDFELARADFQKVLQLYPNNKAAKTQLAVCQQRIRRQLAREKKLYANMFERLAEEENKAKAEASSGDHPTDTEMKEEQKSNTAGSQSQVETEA

T2: Human FKBP51 (51-kDa FK506-binding protein) (human, UniProt Q13451 1-457)
T2 sequence (looked up): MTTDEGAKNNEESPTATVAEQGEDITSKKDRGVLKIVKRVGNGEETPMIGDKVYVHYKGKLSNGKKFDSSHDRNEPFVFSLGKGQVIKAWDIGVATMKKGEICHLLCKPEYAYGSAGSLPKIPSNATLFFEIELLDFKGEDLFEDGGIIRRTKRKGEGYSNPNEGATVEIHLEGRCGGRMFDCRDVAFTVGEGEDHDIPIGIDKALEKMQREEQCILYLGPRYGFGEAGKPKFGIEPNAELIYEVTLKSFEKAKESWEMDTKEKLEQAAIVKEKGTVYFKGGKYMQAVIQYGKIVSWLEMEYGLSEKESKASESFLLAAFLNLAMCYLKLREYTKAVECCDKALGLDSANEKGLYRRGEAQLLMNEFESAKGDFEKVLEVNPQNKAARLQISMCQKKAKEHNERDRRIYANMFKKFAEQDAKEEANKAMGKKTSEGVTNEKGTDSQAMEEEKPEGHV

B1: Human CHIP (carboxyl terminus of Hsc70 interacting protein) (natural protein, UniProt Q9UNE7 1-303, looked up)
chain: MKGKEEKEGGARLGAGGGSPEKSPSAQELKEQGNRLFVGRKYPEAAACYGRAITRNPLVAVYYTNRALCYLKMQQHEQALADCRRALELDGQSVKAHFFLGQCQLEMESYDEAIANLQRAYSLAKEQRLNFGDDIPSALRIAKKKRWNSIEERRIHQESELHSYLSRLIAAERERELEECQRNHEGDEDDSHVRAQQACIEAKHDKYMADMDELFSQVDEKRKKRDIPDYLCGKISFELMREPCITPSGITYDRKDIEEHLQRVGHFDPVTRSPLTQEQLIPNLAMKEVIDAFISENGWVEDY

Key:
Experiment in all cases: fluorescence polarisation
[1] = target: T1, Human FKBP52 (52-kDa FK506-binding …)
[2] = target: T2, Human FKBP51 (51-kDa FK506-binding …)
Hop K8A = Hop K8A (human, UniProt P31948 1-543, K8A)
Hop R77A = Hop R77A (human, UniProt P31948 1-543, R77A)
[3] = target: Human Hsp72 (HSPA1A), full-length (human, UniProt P0DMV8 1-641)
[4] = target: Human Hop (Hsp70/Hsp90 organizing protein) (human, UniProt P31948 1-543)
[5] = target: B1

Sequence of Human Hsp72 (HSPA1A), full-length (P0DMV8 whole entry): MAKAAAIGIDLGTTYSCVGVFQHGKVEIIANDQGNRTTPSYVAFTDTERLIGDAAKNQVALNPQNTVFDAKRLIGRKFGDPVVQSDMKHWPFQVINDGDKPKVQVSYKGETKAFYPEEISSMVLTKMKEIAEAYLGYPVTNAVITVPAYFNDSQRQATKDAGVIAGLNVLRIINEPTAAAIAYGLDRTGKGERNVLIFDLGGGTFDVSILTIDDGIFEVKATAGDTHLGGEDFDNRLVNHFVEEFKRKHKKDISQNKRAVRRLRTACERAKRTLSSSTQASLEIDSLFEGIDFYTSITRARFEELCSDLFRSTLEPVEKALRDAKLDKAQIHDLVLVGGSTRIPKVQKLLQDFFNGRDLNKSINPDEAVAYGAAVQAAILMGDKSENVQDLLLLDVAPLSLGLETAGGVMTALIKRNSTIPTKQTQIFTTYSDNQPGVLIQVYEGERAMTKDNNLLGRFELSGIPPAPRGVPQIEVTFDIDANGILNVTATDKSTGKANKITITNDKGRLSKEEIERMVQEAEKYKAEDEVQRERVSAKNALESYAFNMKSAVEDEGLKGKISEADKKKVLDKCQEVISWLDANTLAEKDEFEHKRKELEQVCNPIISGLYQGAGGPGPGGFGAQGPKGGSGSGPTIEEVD

Kd [1] [µM] | Kd [2] [µM] | Binder | also measured
> 75 | > 75 | {5‑Fam-Ahx}-GSGPTMEEVD [chimeric mutant Hsp72 tracer (Fam-GSGPTMEEVD)] | –
> 75 | > 75 | {5‑Fam-Ahx}-SSGPTIEEVD [Hsc70 C-terminal tracer (Fam-SSGPTIEEVD)] | Kd (Hop K8A): > 25 µM; Kd (Hop R77A): > 25 µM
– | – | Human DnaJC7 (natural protein, UniProt Q99615 1-494, looked up) MAAAAECDVVMAATEPELLDDQEAKREAETFKEQGNAYYAKKDYNEAYNYYTKAIDMCPKNASYYGNRAATLMMLGRFREALGDAQQSVRLDDSFVRGHLREGKCHLSLGNAMAACRSFQRALELDHKNAQAQQEFKNANAVMEYEKIAETDFEKRDFRKVVFCMDRALEFAPACHRFKILKAECLAMLGRYPEAQSVASDILRMDSTNADALYVRGLCLYYEDCIEKAVQFFVQALRMAPDHEKACIACRNAKALKAKKEDGNKAFKEGNYKLAYELYTEALGIDPNNIKTNAKLYCNRGTVNSKLRKLDDAIEDCTNAVKLDDTYIKAYLRRAQCYMDTEQYEEAVRDYEKVYQTEKTKEHKQLLKNAQLELKKSKRKDYYKILGVDKNASEDEIKKAYRKRALMHHPDRHSGASAEVQKEEEKKFKEVGEAFTILSDPKKKTRYDSGQDLDEEGMNMGDFDPNNIFKAFFGGPGGFSFEASGPGNFFFQFG | binding result [3]: binds
> 25 | > 25 | {5‑Fam-Ahx}-DDTSRIEEVD [mutant Hsp90α tracer (Fam-DDTSRIEEVD)] | Kd [4]: > 25 µM
> 25 | > 25 | {5‑Fam-Ahx}-DDTSRMEKVD [Hsp90α Lys mutant tracer (Fam-DDTSRMEKVD)] | –
> 75 | – | {5‑Fam-Ahx}-GSGPTIEEVD [Hsp72 C-terminal tracer (Fam-GSGPTIEEVD)] | Kd (Hop K8A): > 25 µM; Kd [5]: 0.51 µM; Kd (Hop R77A): > 25 µM
– | 4.63 | {5‑Fam-Ahx}-DDTSRMEAVD [Hsp90α Ala mutant tracer (Fam-DDTSRMEAVD)] | –
– | – | B1 | binding result [3]: binds
